Data on one variant can be found in paper PMC7267773, “CCDC61/VFL3 Is a Paralog of SAS6 and Promotes Ciliary Functions” (Structure(London, England:1993), 2020).

First the molecules themselves.
B1: N-terminal head domain of human CCDC61 (hCCDC61^1-143) [human] / itself (parent)
chain: GSMDQPAGLQVDYVFRGVEHAVRVMVSGQVLELEVEDRMTADQWRGEFDAGFIEDLTHKTGNFKQFNIFCHMLESALTQSSESVTLDLLTYTDLESLRNRKMGGRPGSLAPRSAQLNSKRYLILIYSVEFDRIHYPLPLPYQGKP

In the experiment the parent is B1. Briefly: analytical ultracentrifugation (AUC). As to conditions: with itself.
Take chain 1 F130E D131A: the screen value is 16 kDa.
